US6958240, “Inhibition of major groove DNA binding proteins by modified polyamides” (California Instiute of Technology)

Tests used:
[1] = target: T1, GCN4 (222-281), bZIP DNA-binding domain (UniProt P03069 P03069:222-281); assay: EMSA; bound near saturation at 200 nM GCN4; 10 mM bisTris pH 7.0, 100 mM NaCl, 1 mM DTT, 1 mM EDTA, 50 ug/mL poly(dI-dC), 22 C; inhibited by polyamides 3, 5 and 13, not by 1 or 4; details: protein: synthetic; tags: none; prepared by solid phase peptide synthesis; chain copies: 2 (inferred); label: 5'-32P
Protocol: (§1) For gel mobility shifts, polyamide was incubated with radiolabeled synthetic DNA duplex (10 kcpm) in 40 µL reaction volumes of bisTris (10 mM, pH 7.0), NaCl (100 mM), DTT (1 mM), EDTA (1 mM), and poly(dI-dC)·poly(dI-dC) (50 µg/mL) for 16 hours at 22° C. (20 mM MOPS, pH 7.0, 140 mM KCl, 10 mM NaCl, 1 mM MgCl_2, 1 mM spermine was used to model ionic conditions in vivo). GCN4 (222–281) was added and equilibrated for 30 minutes. Loading buffer (15% Ficoll, 0.025% bromophenol blue) (10 µL) was added and 10 µL was immediately loaded onto a running 8% (29:1, acrylamide:bis-acrylamide) polyacrylamide gel (0.5×TBE, 280 V, 0.8 mm, 13 cm). Sufficient separation of the free DNA and the DNA·GCN4 (222–281) complexes was achieved within 45 minutes. Gels were dried and exposed to a storage phosphor screen (Molecular Dynamics) (Johnston, et al. (1990) *Electrophoresis* 11, 355).
(§2) ImPyPyPy-γ-PyPyPyPy-β-polyamides (1 and 3) target the six base pair 5'-TGTTAT-3' site adjacent to the GCN4 binding site of ARE-1 (FIG. 6). ImImPyPy-γ-ImPyPyPy-β-polyamides (2 and 4) were designed to bind 5'-TGGTCT-3' adjacent to the GCN4 site in ARE-2 (FIG. 6).
(§3) The ability of polyamides to inhibit GCN4 (222–281) binding was evaluated using the gel mobility shift assay. […]

[2] = target: T1, GCN4 (222-281), bZIP DNA-binding domain; assay: EMSA; bound near saturation at 200 nM GCN4; same buffer, 22 C; inhibited by matched polyamides 4 and 6, not by 2 or 3; details: protein: synthetic; tags: none; prepared by solid phase peptide synthesis; chain copies: 2 (inferred); label: 5'-32P
Protocol: as §1, §2, §3

T1 sequence (P03069 222-281, one chain of several): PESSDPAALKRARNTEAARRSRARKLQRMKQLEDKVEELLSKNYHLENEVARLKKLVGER

Binder	binding result [1]	binding result [2]
ARE-1 (dsDNA) DNA 1: CCGGATCCATGGTTGCTGACTAATTGTTATCCTCTAGAGTCGACC DNA 2: GGTCGACTCTAGAGGATAACAATTAGTCAGCAACCATGGATCCGG	binds	
ARE-2 (dsDNA) DNA 1: CCGGATCCATGGTTGCTGACTAATTGGTCTCCTCTAGAGTCGACC DNA 2: GGTCGACTCTAGAGGAGACCAATTAGTCAGCAACCATGGATCCGG		binds
